Source: patent publication US20130345294

Target: GAVP(N56K+C71V) N56K,C71V (VIVID numbering) (artificial) (UniProt Q04206)
Assay: cell_activity

Sequence of UniProt Q04206 (Q04206 whole entry, stated change not applied): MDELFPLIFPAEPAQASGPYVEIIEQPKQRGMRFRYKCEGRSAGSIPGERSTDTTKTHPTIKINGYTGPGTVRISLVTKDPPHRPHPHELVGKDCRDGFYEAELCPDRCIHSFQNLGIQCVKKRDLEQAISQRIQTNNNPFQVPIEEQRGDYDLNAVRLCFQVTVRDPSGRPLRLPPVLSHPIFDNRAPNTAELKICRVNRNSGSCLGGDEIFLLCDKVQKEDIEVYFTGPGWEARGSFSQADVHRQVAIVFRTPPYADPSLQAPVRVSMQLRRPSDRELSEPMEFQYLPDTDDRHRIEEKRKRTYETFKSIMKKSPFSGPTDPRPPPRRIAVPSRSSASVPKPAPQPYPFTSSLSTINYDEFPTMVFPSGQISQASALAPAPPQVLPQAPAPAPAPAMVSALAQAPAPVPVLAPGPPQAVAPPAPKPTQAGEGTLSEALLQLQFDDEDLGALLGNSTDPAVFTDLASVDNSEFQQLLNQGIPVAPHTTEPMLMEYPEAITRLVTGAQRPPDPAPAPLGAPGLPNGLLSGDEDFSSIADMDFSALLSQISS

Row | Substance | activity (HEK293 light/dark induction, also active in NIH3T3 and COS-7) [fold] | activity (HEK293, Gluc after 12 h light, 30-fold after 3 h) [fold]
1 | 5xUASG-TATA-Fluc | 200 | 
2 | TCTAGACGGAGTACTGTCCTCCGAGCGGAGTACTGTCCTCCGACTCGAGCGGAGTACTGTCCTCCGATCGGAGTACTGTCCTCCGCGAATTCCGGAGTACTGTCCTCCGAAGACGCTAGCGGGGGGCTATAAAAGGGGGTGGGGGCGTTCGTCCTCACTCTAGATCTGCGATCTAAGTAAGCTTGGCCACCATGGGAGTCAAAGTTCTGTTTGCCCTGATCTGCATCGCTGTGGCCGAGGCCAAGCCCACCGAGAACAACGAAGACTTCAACATCGTGGCCGTGGCCAGCAACTTCGCGACCACGGATCTCGATGCTGACCGCGGGAAGTTGCCCGGCAAGAAGCTGCCGCTGGAGGTGCTCAAAGAGATGGAAGCCAATGCCCGGAAAGCTGGCTGCACCAGGGGCTGTCTGATCTGCCTGTCCCACATCAAGTGCACGCCCAAGATGAAGAAGTTCATCCCAGGACGCTGCCACACCTACGAAGGCGACAAAGAGTCCGCACAGGGCGGCATAGGCGAGGCGATCGTCGACATTCCTGAGATTCCTGGGTTCAAGGACTTGGAGCCCATGGAGCAGTTCATCGCACAGGTCGATCTGTGTGTGGACTGCACAACTGGCTGCCTCAAAGGGCTTGCCAACGTGCAGTGTTCTGACCTGCTCAAGAAGTGGCTGCCGCAACGCTGTGCGACCTTTGCCAGCAAGATCCAGGGCCAGGTGGACAAGATCAAGGGGGCCGGTGGTGACTAA (double strand) [5xUASG-TATA-Gluc] |  | 100
